Results published in paper doi:10.1101/2022.03.14.484356 (bioRxiv, 2022).

Molecular target: T1, recombinant RABL3 (human, UniProt Q5HYI8 1-236)
T1 sequence (looked up): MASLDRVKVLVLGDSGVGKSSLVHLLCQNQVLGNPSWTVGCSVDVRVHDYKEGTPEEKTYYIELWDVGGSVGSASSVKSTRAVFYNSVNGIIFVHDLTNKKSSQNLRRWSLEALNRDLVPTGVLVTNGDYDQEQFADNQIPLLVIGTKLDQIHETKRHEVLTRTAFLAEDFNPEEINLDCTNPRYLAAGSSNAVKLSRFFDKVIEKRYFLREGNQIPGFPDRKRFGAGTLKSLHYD
Assay: pull-down

B1: recombinant GST-RAB11A (natural protein, human, UniProt P62491 1-216, looked up)
chain: MGTRDDEYDYLFKVVLIGDSGVGKSNLLSRFTRNEFNLESKSTIGVEFATRSIQVDGKTIKAQIWDTAGQERYRAITSAYYRGAVGALLVYDIAKHLTYENVERWLKELRDHADSNIVIMLVGNKSDLRHLRAVPTDEARAFAEKNGLSFIETSALDSTNVEAAFQTILTEIYRIVSQKQMSDRRENDMSPSNNVVPIHVPPTTENKPKVQCCQNI
binding result: binds
